First the molecules themselves.
B1: CPEB3 Ribozyme (parent)
chain: GGGGGCCACAGCAGAAGCGUUCACGUCGCGGCCCCUGUCAGAUUCUGGUGAAUCUGCGAAUUCUGCUGU

The data set covers variants of B1. The data set is described as follows: self-cleavage, relative activity (ratio to wild type); higher = more cleavage; co-transcriptional.
In the case of GGGGGCCACAGCAGAAGCGUUCACGUCGCGGCCCCUAUCAGAUUCUGGUGAAUCUGAGAAUUCUGCUGU, the self-cleavage is 0.217. Then GGGGGCCACAGCAGAAGCGUUCACGUCGCGGCCCCGGUCAGAAUCUGGUGAAUCUGCGAAUUCUGCUGU, with 0.26. GGGGGCCACAGCAGAAGCGUUCACGUCGCGGCCCCGGUCAGACUCUGGUGAAUCUGCGAAUUCUGCUGU: the self-cleavage is 0.268. Turning to GGGGGCCACAGCAGAAGCGUUCACGUCGCGGCCCCGGUCAGAGUCUGGUGAAUCUGCGAAUUCUGCUGU, the self-cleavage was 0.231.

With GGGGGCCACAGCAGAAGCGUUCACGUCGCGGCCCCUAUCAGAUUCUGGUGAGUCUGCGAAUUCUGCUGU, the self-cleavage was determined as 0.268. Then GGGGGCCACAGCAGAAGCGUUCACGUCGCGGCCCCUAUCAGAUUCUGGUGAUUCUGCGAAUUCUGCUGU, with 0.273; and GGGGGCCACAGCAGAAGCGUUCACGUCGCGGCCCCUAUCAGAUUCUGGUGAAUCUGCGAGUUCUGCUGU, with 0.209. As for GGGGGCCACAGCAGAAGCGUUCACGUCGCGGCCCCGGUCAGAUUCUGGUGAAUCAGCGAAUUCUGCUGU, the self-cleavage worked out at 0.238. For GGGGGCCACAGCAGAAGCGUUCACGUCGCGGCCCCGGUCAGAUUCUGGUGAAUCUGCGAAAUCUGCUGU, the self-cleavage was 0.341.

For the variant GGGGGCCACAGCAGAAGCGUUCACGUCGCGGCCCCGGUCAGAUACUGGUGAAUCUGCGAAUUCUGCUGU, the self-cleavage was determined as 0.246.

For the variant GGGGGCCACAGCAGAAGCGUUCACGUCGCGGCCCCGGUCAGAUGCUGGUGAAUCUGCGAAUUCUGCUGU, the self-cleavage was determined as 0.219. In the case of GGGGGCCACAGCAGAAGCGUUCACGUCGCGGCCCCGGUCAGAUUCUGGUGAAUCUGCGAAUUCUGCUGA, the self-cleavage is 0.297.

Regarding GGGGGCCACAGCAGAAGCGUUCACGUCGCGGCCCCGGUCAGAUUCUGGUGAACCUGCGAAUUCUGCUGU, the self-cleavage amounted to 0.267. On to GGGGGCCACAGCAGAAGCGUUCACGUCGCGGCCCCUAUCAGAUUGUGGUGAAUCUGCGAAUUCUGCUGU, for which the self-cleavage is 0.281. Then GGGGGCCACAGCAGAAGCGUUCACGUCGCGGCCCCUAUCAGAUUUUGGUGAAUCUGCGAAUUCUGCUGU, with 0.351; and GGGGGCCACAGCAGAAGCGUUCACGUCGCGGCCCCUAUCAGAUUCUGGUGUAUCUGCGAAUUCUGCUGU, with 0.285. For the variant GGGGGCCACAGCAGAAGCGUUCACGUCGCGGCCCCUAUCAGCUUCUGGUGAAUCUGCGAAUUCUGCUGU, the self-cleavage was determined as 0.293.

GGGGGCCACAGCAGAAGCGUUCACGUCGCGGCCCCUAUCAGUUUCUGGUGAAUCUGCGAAUUCUGCUGU: the self-cleavage stood at 0.275. As to GGGGGCCACAGCAGAAGCGUUCACGUCGCGGCCCCUAUUAGAUUCUGGUGAAUCUGCGAAUUCUGCUGU, the self-cleavage amounted to 0.372. As to GGGGGCCACAGCAGAAGCGUUCACGUCGCGGCCCCUAUAAGAUUCUGGUGAAUCUGCGAAUUCUGCUGU, the self-cleavage was 0.236. Regarding GGGGGCCACAGCAGAAGCGUUCACGUCGCGGCCCCUAUCAGAUUCUGGUGAAUCUGCGCAUUCUGCUGU, the self-cleavage is 0.213.

Take GGGGGCCACAGCAGAAGCGUUCACGUCGCGGCCCCUAUCAGAUUCUGGUGAAUCUGCGGAUUCUGCUGU: the self-cleavage was 0.36. On to GGGGGCCACAGCAGAAGCGUUCACGUCGCGGCCCCGGUCAGAUUCUGGUGAAUCUGCGAAUUCUGCAGU, for which the self-cleavage turned out to be 0.0785.

In the case of GGGGGCCACAGCAGAAGCGUUCACGUCGCGGCCCCGGUCAGAUUCUGGUGAAUCUGCGAAUUCUGCCGU, the self-cleavage worked out at 0.239. Turning to GGGGGCCACAGCAGAAGCGUUCACGUCGCGGCCCCGGUCAGAUUCUGGUGAAUCUGCGAAUUCGGCUGU, the self-cleavage amounted to 0.195. Regarding GGGGGCCACAGCAGAAGCGUUCACGUCGCGGCCCCGGUCAGAUUCUGGUGAAUCUGCGAAUUCCGCUGU, the self-cleavage amounted to 0.188. Turning to GGGGGCCACAGCAGAAGCGUUCACGUCGCGGCCCCGGCCAGAUUCUGGUGAAUCUGCGAAUUCUGCUGU, the self-cleavage came to 0.248. For GGGGGCCACAGCAGAAGCGUUCACGUCGCGGCCCCGGGCAGAUUCUGGUGAAUCUGCGAAUUCUGCUGU, the self-cleavage stood at 0.2. Then GGGGGCCACAGCAGAAGCGUUCACGUCGCGGCCCCUAUCAGAUUCUGGUGAAUCUGCGAAUUCUGCUGU, with 0.32; and GGGGGCCACAGCAGAAGCGUUCACGUCGCGGCCCCGGUCAGAUUCUGGUGAAUCUGCGAAUUCUACUGU, with 0.207. Then GGGGGCCACAGCAGAAGCGUUCACGUCGCGGCCCCGGUCAGAUUCUGGUGAAUCUGCGAAUUCUCCUGU, with 0.25; and GGGGGCCACAGCAGAAGCGUUCACGUCGCGGCCCCGGUCAGAUUCUGGUGAAUCUGCGAAUCCUGCUGU, with 0.21; and GGGGGCCACAGCAGAAGCGUUCACGUCGCGGCCCCGGUCAGAUUCUGGCGAAUCUGCGAAUUCUGCUGU, with 0.146. For GGGGGCCACAGCAGAAGCGUUCACGUCGCGGCCCCGGUCAGAUUCCGGUGAAUCUGCGAAUUCUGCUGU, the self-cleavage amounted to 0.21. In the case of GGGGGCCACAGCAGAAGCGUUCACGUCGCGGCCCCUAUCCGAUUCUGGUGAAUCUGCGAAUUCUGCUGU, the self-cleavage was found to be 0.261. With GGGGGCCACAGCAGAAGCGUUCACGUCGCGGCCCCUAUCGGAUUCUGGUGAAUCUGCGAAUUCUGCUGU, the self-cleavage came to 0.334. On to GGGGGCCACAGCAGAAGCGUUCACGUCGCGGCCCCUAUCUGAUUCUGGUGAAUCUGCGAAUUCUGCUGU, for which the self-cleavage is 0.244. Under GGGGGCCACAGCAGAAGCGUUCACGUCGCGGCCCCUAUCAGAUUCUGGUGAAUAUGCGAAUUCUGCUGU stands 0.235. Under GGGGGCCACAGCAGAAGCGUUCACGUCGCGGCCCCUAUCAGAUUCUGGUGAAUUUGCGAAUUCUGCUGU stands 0.417.

The values above are taken from the RNAGym collection of RNA variant scans (doi:10.7554/elife.80360).
